{
  "source": "patent US20070243303",
  "about": "“Methods and Means for Regulating Gene Expression” (Friesland Brands B.V., published 2007)",
  "key": {"[1]": {"molecular_target": "T1, CodY (native, in cell) (Lactococcus lactis subsp. cremoris …, UniProt A2RHP2 A2RHP2:1-262)", "T1 sequence": "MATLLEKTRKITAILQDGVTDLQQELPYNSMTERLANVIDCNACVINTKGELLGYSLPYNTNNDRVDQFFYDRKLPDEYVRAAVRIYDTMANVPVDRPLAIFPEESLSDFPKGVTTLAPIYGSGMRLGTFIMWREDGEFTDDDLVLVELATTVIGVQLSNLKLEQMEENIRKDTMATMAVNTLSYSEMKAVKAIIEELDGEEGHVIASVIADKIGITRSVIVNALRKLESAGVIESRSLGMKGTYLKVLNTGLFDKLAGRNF", "test": "cell_activity", "details": "8-fold for prtM::lacZ; less than 2-fold in codY mutant; scale: fold repression"}, "[2]": {"molecular_target": "T1, CodY (native, in cell)", "test": "cell_activity; lacZ reporter in L. lactis LL108", "description": "(§1) The fact that H6-CodY was unable to form a protein-DNA complex when a probe was used that lacks the upstream arm of this IR (probe 1 in FIG. 3) implies that this area might serve as an operator site for CodY on PoppD. To study this region in more detail, site directed mutations were introduced by PCR using combinations of oligonucleotide opp1 with oligonucleotides opp14 (WT), opp15(a), opp(15b) or opp2, respectively (FIG. 4A). The PCR products were ligated upstream of the promoterless lacZ reporter gene in pORI13 and introduced into L. lactis LL108. […] When the unchanged half-site was replaced by an unrelated sequence (an XbaI endonuclease site, present in opp2), repression was reduced approximately 30-fold (in cells growing exponentially in rich medium) and H6-CodY binding was completely abolished (as shown in FIG. 3).\n(§2) FIG. 4D: Promoter activity of PoppD variants. L. lactis LL108 strains carrying the lacZ reporter plasmids were grown in GM17 medium. Cells were harvested in the exponential phase of growth and β-galactosidase activity was measured (solid bars). […] Open bars indicate a quantitative representation of the DNA binding assay shown in panel C. The relative binding affinity of H6-CodY for the PoppD variants was calculated by comparing the intensity of the shifted, H6-CodY bound complexes with the total radioactive signal in each lane in the presence of 100 ng protein."}, "[3]": {"molecular_target": "T2, CodY (H6-CodY) (Lactococcus lactis subsp. cremoris …, UniProt A2RHP2 A2RHP2:1-262)", "T2 sequence": "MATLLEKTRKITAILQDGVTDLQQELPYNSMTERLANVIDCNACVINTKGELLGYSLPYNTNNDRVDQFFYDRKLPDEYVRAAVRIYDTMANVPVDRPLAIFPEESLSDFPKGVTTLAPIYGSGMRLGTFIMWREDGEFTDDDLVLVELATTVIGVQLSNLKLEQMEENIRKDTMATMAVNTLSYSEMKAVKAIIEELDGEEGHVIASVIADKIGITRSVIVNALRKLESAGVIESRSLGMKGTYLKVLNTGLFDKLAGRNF", "test": "EMSA; affinity order WT > opp15(a) > opp15(b)", "details": "tags: N-terminal His6 (pNH6CodY, nisin-induced in L. lactis NZ9000, Ni-NTA); chain copies: multimer, dimer or tetramer by cross-linking (stated); label: 32P 5'-end", "description": "as §1, §2"}, "[4]": {"molecular_target": "T2, CodY (H6-CodY)", "test": "EMSA; no binding at any protein amount", "details": "tags: N-terminal His6 (pNH6CodY, nisin-induced in L. lactis NZ9000, Ni-NTA); chain copies: multimer, dimer or tetramer by cross-linking (stated); label: 32P 5'-end", "procedure": "BSA (1 μg) and poly(dI-dC) (Amersham Pharmacia Biotech) were added to the reaction mixtures in order to reduce non-specific interactions. After incubation for 15 min at 30° C., samples were loaded onto a 4% polyacrylamide gel. Electrophoresis was performed in the Protean II Minigel System (Bio Rad Laboratories B. V., Veenendaal, The Netherlands) using a gradient (0.5× to 2×) of TAE buffer (Sambrook, Fritsch, and Maniatis, 1989) at 150 V for 1.5 h. Gels were dried and used for autoradiography at −80° C. using Kodak XAR-5 films and intensifying screens.\nThe upstream oppD region contains a small sequence that is inversely repeated with a spacing of 9 base pairs in between (FIG. 1). This region of dyad symmetry is located just upstream of the −35 promoter sequence. To determine whether this region is important for the interaction with CodY, a stepwise deletion analysis of the oppD upstream region was performed. Radioactively labeled deletion fragments of the region, obtained by PCR, were incubated with H6-CodY. […]\nDifferent parts of the oppD promoter region were amplified by PCR (panel A), radioactively labelled and incubated with no (lanes 1), 20 ng (lanes 2) or 200 ng (lanes 3) of His6-CodY protein, respectively (panel B). […] Cells were harvested in the exponential phase of growth and β-galactosidase activity was measured (solid bars). […]"}, "[5]": {"molecular_target": "T2, CodY (H6-CodY)", "test": "EMSA; 20 or 200 ng H6-CodY", "details": "tags: N-terminal His6 (pNH6CodY, nisin-induced in L. lactis NZ9000, Ni-NTA); chain copies: multimer, dimer or tetramer by cross-linking (stated); label: 32P 5'-end", "procedure": "(§3) Gel retardation experiments were carried out essentially as described by Ebbole and Zalkin (Ebbole et al., 1989). Purified PCR products (2 μg) were end-labelled with polynucleotide kinase (Amersham Pharmacia Biotech) for 1 h at 37° C. using 30 μCi [γ-³²P]-ATP (Amersham Pharmacia Biotech) in a volume of 20 μl. Reactions were stopped by incubating the mixtures for 10 min at 70° C. Binding studies were carried out in 20 μl reaction volumes containing 20 mM Tris-HCl (pH 8.0), 8.7% (v/v) glycerol, 1 mM EDTA (pH 8.0), 5 mM MgCl₂, 100 mM KCL, 0.5 mM DTT, labelled DNA fragment (3000 cpm), and purified His6-CodY protein (50-400 ng). BSA (1 μg) and poly(dI-dC) (Amersham Pharmacia Biotech) were added to the reaction mixtures in order to reduce non-specific interactions. After incubation for 15 min at 30° C., samples were loaded onto a 4% polyacrylamide gel. Electrophoresis was performed in the Protean II Minigel System (Bio Rad Laboratories B. V., Veenendaal, The Netherlands) using a gradient (0.5× to 2×) of TAE buffer (Sambrook, Fritsch, and Maniatis, 1989) at 150 V for 1.5 h. Gels were dried and used for autoradiography at −80° C. using Kodak XAR-5 films and intensifying screens.\nThe upstream oppD region contains a small sequence that is inversely repeated with a spacing of 9 base pairs in between (FIG. 1). This region of dyad symmetry is located just upstream of the −35 promoter sequence. […]"}, "[6]": {"molecular_target": "T2, CodY (H6-CodY)", "test": "EMSA; multiple retarded bands, four with 10-100 ng; 5 mM MgCl2, 100 mM KCl, pH 8.0, 30 C; Ile (0.6 or 2.5 mM) stimulates, Val/Leu 0.6 mM reduce shift and 2.5 mM give", "details": "tags: N-terminal His6 (pNH6CodY, nisin-induced in L. lactis NZ9000, Ni-NTA); chain copies: multimer, dimer or tetramer by cross-linking (stated); label: 32P 5'-end", "procedure": "as §3, with “Binding studies were carried out in 20 μl reaction volumes containing 20 mM Tris-HCl (pH 8.0), 8.7% (v/v) glycerol, 1 mM EDTA (pH 8.0), 5 mM MgCl₂, 100 mM KCL, 0.5 mM DTT, labelled DNA fragment (3000 cpm), and purified His6-CodY protein (50-400 ng).” left out\nIn order to examine whether L. lactis CodY directly interacts with upstream DNA sequences of its main target known so far, oppD, in vitro DNA binding studies were performed. For this purpose, histidine-tagged CodY was overexpressed using the nisin inducible gene expression system (Kuipers et al., 1998) and subsequently purified to apparent homogeneity. A radioactively labeled PCR fragment spanning the oppD upstream region (FIG. 1) was used as a probe. […]"}},
  "data": [
    {"molecule": "prtP/prtM intergenic region BGMN1-5 (330 bp)", "values": [
      {"measurement": "activity", "setting": "[1]", "result": 6}
    ]},
    {"molecule": "opp15(b) mutant oppD fragment (154 bp) (dsDNA) DNA 1: AACTGCAGCGTACTGTGCCGAAAATTCATGAACATACC DNA 2: GGTATGTTCATGAATTTTCGGCACAGTACGCTGCAGTT", "values": [
      {"measurement": "activity", "setting": "[2]", "result": "> 20", "unit": "fold derepression vs WT"}
    ]},
    {"molecule": "opp15(a) mutant oppD fragment (154 bp) (dsDNA) DNA 1: AACTGCAGCGTAATATTTAGAAAATTCATGAACATACC DNA 2: GGTATGTTCATGAATTTTCTAAATATTACGCTGCAGTT", "values": [
      {"measurement": "activity", "setting": "[2]", "result": "~7", "unit": "fold derepression vs WT"}
    ]},
    {"molecule": "opp14 WT oppD fragment (154 bp) (dsDNA) DNA 1: ATGTTCAGAAAATTCATGAACAT DNA 2: ATGTTCATGAATTTTCTGAACAT", "values": [
      {"measurement": "binding result", "setting": "[3]", "result": "binds"}
    ]},
    {"molecule": "oppD probe 1 / opp2 (160 bp, upstream arm removed) (dsDNA) DNA 1: AACTGCAGGAAAATTCATGAACATACC DNA 2: GGTATGTTCATGAATTTTCCTGCAGTT", "values": [
      {"measurement": "binding result", "setting": "[4]", "result": "no binding"}
    ]},
    {"molecule": "oppD probe 2 (-111 to +75) (dsDNA) DNA 1: ATGTTCAGAAAATTCATGAACAT DNA 2: ATGTTCATGAATTTTCTGAACAT", "values": [
      {"measurement": "binding result", "setting": "[5]", "result": "binds"}
    ]},
    {"molecule": "oppD promoter fragment opp162 (probe 3, opp1-opp3 PCR) (dsDNA) DNA 1: ATGTTCAGAAAATTCATGAACAT DNA 2: ATGTTCATGAATTTTCTGAACAT", "values": [
      {"measurement": "binding result", "setting": "[6]", "result": "binds"}
    ]}
  ]
}
